Source: article PMC2150586 (The Journal of Cell Biology, 1999)

Columns and labels:
[1] = biological target: T1, GSTCdc24 (NH2-terminal 472 amino acids of Cdc24p fused to GST) (S. cerevisiae, UniProt P11433 1-472); assay: pull-down
T1 sequence: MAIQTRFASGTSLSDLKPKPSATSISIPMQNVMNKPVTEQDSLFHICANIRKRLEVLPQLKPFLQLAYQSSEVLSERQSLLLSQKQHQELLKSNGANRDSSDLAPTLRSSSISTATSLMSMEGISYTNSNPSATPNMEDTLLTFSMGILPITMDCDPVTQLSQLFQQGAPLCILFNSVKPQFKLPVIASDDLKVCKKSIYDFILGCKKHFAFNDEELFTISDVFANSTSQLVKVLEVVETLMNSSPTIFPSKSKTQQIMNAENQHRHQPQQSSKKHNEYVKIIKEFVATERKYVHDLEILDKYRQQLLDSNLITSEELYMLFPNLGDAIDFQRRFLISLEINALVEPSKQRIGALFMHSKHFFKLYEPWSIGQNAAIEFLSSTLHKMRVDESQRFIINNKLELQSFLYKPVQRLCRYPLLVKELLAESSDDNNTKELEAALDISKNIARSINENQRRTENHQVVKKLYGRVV

[2] = biological target: T2, GSTCdc24–MBPFar1 complex, isolated by sequential purification on amylose and glutathione resin (S. cerevisiae, UniProt P11433;P21268); assay: pull-down
T2 sequence 1: T1 sequence
T2 sequence 2: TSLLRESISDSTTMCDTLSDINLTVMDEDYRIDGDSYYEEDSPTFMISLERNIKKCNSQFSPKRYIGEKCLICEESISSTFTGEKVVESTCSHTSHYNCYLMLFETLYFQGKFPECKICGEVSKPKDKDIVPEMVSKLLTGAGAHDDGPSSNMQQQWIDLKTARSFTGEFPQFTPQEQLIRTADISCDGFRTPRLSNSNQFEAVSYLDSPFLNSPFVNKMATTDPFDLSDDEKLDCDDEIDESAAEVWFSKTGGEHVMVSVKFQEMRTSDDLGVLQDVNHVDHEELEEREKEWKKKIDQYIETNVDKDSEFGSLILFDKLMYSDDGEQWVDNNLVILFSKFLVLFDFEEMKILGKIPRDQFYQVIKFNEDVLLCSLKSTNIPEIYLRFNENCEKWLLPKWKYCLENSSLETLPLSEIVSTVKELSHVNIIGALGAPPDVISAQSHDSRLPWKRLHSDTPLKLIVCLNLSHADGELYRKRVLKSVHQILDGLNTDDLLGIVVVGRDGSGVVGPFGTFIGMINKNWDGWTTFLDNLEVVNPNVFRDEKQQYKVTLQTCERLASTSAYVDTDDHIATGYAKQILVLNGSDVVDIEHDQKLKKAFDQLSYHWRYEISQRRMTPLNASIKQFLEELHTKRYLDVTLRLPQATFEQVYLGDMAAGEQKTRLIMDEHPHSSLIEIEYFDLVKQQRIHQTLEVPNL

B1: HASte4p purified from yeast (from HASte4-(TEV)-protein A, released with TEV protease) (natural protein)
chain: MAAHQMDSITYSNNVTQQYIQPQSLQDISAVEDEIQNKIEAARQESKQLHAQINKAKHKIQDASLFQMANKVTSLTKNKINLKPNIVLKGHNNKISDFRWSRDSKRILSASQDGFMLIWDSASGLKQNAIPLDSQWVLSCAISPSSTLVASAGLNNNCTIYRVSKENRVAQNVASIFKGHTCYISDIEFTDNAHILTASGDMTCALWDIPKAKRVREYSDHLGDVLALAIPEEPNSENSSNTFASCGSDGYTYIWDSRSPSAVQSFYVNDSDINALRFFKDGMSIVAGSDNGAINMYDLRSDCSIATFSLFRGYEERTPTPTYMAANMEYNTAQSPQTLKSTSSSYLDNQGVVSLDFSASGRLMYSCYTDIGCVVWDVLKGEIVGKLEGHGGRVTGVRSSPDGLAVCTGSWDSTMKIWSPGYQ
[1]
  fold increase of HASte4p bound when MBPFar1 is added: ~2 fold
[2]
  fold HASte4p bound against a similar amount of GSTCdc24 alone: 2 fold
